What all share (conditions): protein: recombinant;recombinant; tags: N-terminal 6xHis (pQE30) and EGFP with TEV linker; C-terminal FLAG;N-terminal T7; C-terminal 6xHis; copies: 1;1; label: 5' biotin on strand 2 (SR1 primer); blunt
Data set [1] deals with T1, EGFP-Scr-FLAG;T7-Dll-His (Drosophila melanogaster?;Drosophila …, UniProt P09077;P20009 1-417;1-327, |). Put plainly: biotin-DNA pull-down, anti-FLAG western; Dll increases Scr binding, concentration-dependent; Dll on DNA not probed; Pull-down in 1 ml: 500 ul protein in dialysis buffer (20 mM HEPES pH 8.0, 200 mM NaCl, 10% glycerol, 2 mM MgCl2, 0.05% Tween-20) + 500 ul probe mix with 200 ul.
T1 sequence (P09077 whole entry, chain 1 of 2): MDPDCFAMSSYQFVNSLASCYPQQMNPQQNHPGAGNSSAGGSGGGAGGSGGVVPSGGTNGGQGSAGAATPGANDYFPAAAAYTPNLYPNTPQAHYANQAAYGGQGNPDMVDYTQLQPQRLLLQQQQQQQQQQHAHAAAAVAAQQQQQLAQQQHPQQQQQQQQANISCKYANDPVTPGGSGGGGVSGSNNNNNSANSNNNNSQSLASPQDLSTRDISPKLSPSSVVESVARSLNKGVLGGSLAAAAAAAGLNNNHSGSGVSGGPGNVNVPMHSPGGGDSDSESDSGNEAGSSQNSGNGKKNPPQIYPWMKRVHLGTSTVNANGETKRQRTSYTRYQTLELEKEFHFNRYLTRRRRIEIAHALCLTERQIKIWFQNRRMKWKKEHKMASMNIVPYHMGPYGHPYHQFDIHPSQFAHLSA
T1 sequence (P20009 whole entry, chain 2 of 2): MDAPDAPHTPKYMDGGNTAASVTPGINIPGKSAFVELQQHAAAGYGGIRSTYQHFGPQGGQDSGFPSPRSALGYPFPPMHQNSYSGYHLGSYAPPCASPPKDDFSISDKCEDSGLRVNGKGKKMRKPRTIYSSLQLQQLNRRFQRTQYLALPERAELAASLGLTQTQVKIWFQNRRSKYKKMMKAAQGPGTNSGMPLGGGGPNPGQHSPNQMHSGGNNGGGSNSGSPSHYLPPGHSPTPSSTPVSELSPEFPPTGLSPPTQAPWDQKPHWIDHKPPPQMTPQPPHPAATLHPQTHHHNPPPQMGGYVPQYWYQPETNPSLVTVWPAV

The target of data set [2] is T1, EGFP-Scr-FLAG;T7-Dll-His. Put plainly: biotin-DNA pull-down, anti-FLAG western; Dll assists Scr binding; Dll on DNA not probed; Pull-down in 1 ml: 500 ul protein in dialysis buffer (20 mM HEPES pH 8.0, 200 mM NaCl, 10% glycerol, 2 mM MgCl2, 0.05% Tween-20) + 500 ul probe mix with 200 ul.
The target in data set [3] is T1, EGFP-Scr-FLAG;T7-Dll-His. Description: biotin-DNA pull-down, anti-FLAG western; Dll enhances Scr binding; Dll on DNA not probed; Pull-down in 1 ml: 500 ul protein in dialysis buffer (20 mM HEPES pH 8.0, 200 mM NaCl, 10% glycerol, 2 mM MgCl2, 0.05% Tween-20) + 500 ul probe mix with 200 ul.

B1: probe-Scr-Dll consensus (dsDNA)
DNA 1: TGGGCCTGGTAATTAATTTAATTATCCAGGTCGTATGCCGTCTTCTGCTTG
DNA 2: CAAGCAGAAGACGGCATACGACCTGGATAATTAAATTAATTACCAGGCCCA
For B1, the binding result with EGFP-Scr-FLAG;T7-Dll-His [1] is given as “binds”.

B2: probe-dpy (dpy-1) (dsDNA)
DNA 1: ATCGTTAAATTACCGCAATTTGCATGTTCGTATGCCGTCTTCTGCTTG
DNA 2: CAAGCAGAAGACGGCATACGAACATGCAAATTGCGGTAATTTAACGAT
B2: the binding result with EGFP-Scr-FLAG;T7-Dll-His [2] is “binds”.

B3: probe-dsx (dsx-1) (dsDNA)
DNA 1: AATATTTTATAAATTTAATAAATTGAGTCGTATGCCGTCTTCTGCTTG
DNA 2: CAAGCAGAAGACGGCATACGACTCAATTTATTAAATTTATAAAATATT
As for B3, the binding result with EGFP-Scr-FLAG;T7-Dll-His [3] is reported as “binds”.

The values above are taken from publication PMC9249852, “Transcription factor paralogs orchestrate alternative gene regulatory networks by context-dependent cooperation with multiple cofactors”.
